One data set deals with P. gingivalis. As to the kind of experiment: Effect of ArcA domains on fimA expression. Particulars: domain of ArcA as a whole. The class given is cell-based, Porphyromonas gingivalis.
Data set [1] in a line: Arginine deiminase activity of ArcA domain. The format is biochemical.

The values that follow come from US11504414B2, “Bacterial inhibitors” (priority 2016, dated 2022).

B1: C-terminal domain: C-terminal domain of S. cristatus arginine deiminase, 208 amino acid portion (protein, listed as Streptococcus cristatus)
chain: VYNREEDTRIEGGDELVLSKDVLAVGISQRTDAASIEKLLVNIFKKNVGFKKVLAFEFANNRKFMHLDTVFTMVDYDKFTIHPEIEGDLRVYSVTYENEKLKIVEEKGDLAELLAQNLGVEKVHLIRCGGGNIVAAGREQWNDGSNTLTIAPGVVVVYDRNTVTNKILEEYGLRLIKIRGSELVRGRGGPRCMSMPFEREEV
For the molecule B1, the “effect on fimA expression of P. gingivalis” value in the data set on P. gingivalis is reported as “observed to affect”. Moreover, the deiminase activity result in data set [1] was “does not have any deiminase activity”.
